Reference: patent publication US12286461B2, “Recombinant fused polypeptide and use thereof” (priority 2019, dated 2025)

Columns and labels:
[1] = test system: SD rats with CCl4-induced hepatic fibrosis; experiment: CCl4-induced hepatic fibrosis animal model; format: in vivo; conditions: 40% CCl4 i.p. twice a week for 8 weeks, fused polypeptides 6 mg/kg s.c. once every five days
Description: Modeling was performed on the rats. Each group other than the blank group was injected with 40% CCl4 intraperitoneally twice a week, the first injection was performed at 3 mL/kg, and then injection was performed at 2 mL/kg. Modeling was performed for 8 weeks to induce hepatic fibrosis. After the intraperitoneal injection of CCl4 for the fourth time, the drugs were administered according to Table 3. After induction for 8 weeks, the administration was stopped. The SD rats were dissected the next day, and blood was taken. The liver tissue was stored in a refrigerator at −80° C. for further use. The expression of HYP in the hepatic tissue of rats was detected. [table]

[2] = test system: SD rats with bleomycin-induced pulmonary fibrosis; experiment: Bleomycin-induced pulmonary fibrosis animal model; format: in vivo; conditions: for Survival rate (%): bleomycin 5 mg/kg intratracheal, dosage 10 mg/kg (Table 2), administration cycle 15 days from day 7 after modeling; for content of TGF-β1 in serum, difference from the model group: fused polypeptides 10 mg/kg s.c. once every five days, nintedanib 25 mg/kg intragastric once a day
Description: SD rats were anesthetized by intraperitoneal injection of 4% chloral hydrate with a concentration of 1 mL/100 g. After anesthesia, the rats were fixed and their necks were disinfected by using cotton with 75% alcohol. The skin of the rat neck was longitudinally cut with scissors, and the fascia and muscle were longitudinally bluntly torn with tweezers to expose the trachea. A syringe was inserted into the trachea to inject 5 mg/kg bleomycin, while a blank group was injected with an equal amount of normal saline. Then a rat plate was quickly erected and rotated, the rats' breathing was observed, the neck wound was sterilized after rotation and was sewn, and an amoxicillin anti-inflammatory drug was sprinkled on the suture. After the operation, the rats were put back into a dry and clean cage for resting, waiting for awakening. The rats were awakened after about 1-2 hours, and then fed normally. On the 7th day after modeling, modeling group animals randomly fell into a model group, a Nintedanib positive drug group, recombinant fused polypeptide 1, 2, 3 and 4 dosage groups, and a normal control group, and the groups were administered separately for an administration cycle of 15 days. Living situations of rats were observed every day and their weights were weighed. After administration for 15 days, the eyeballs were removed and blood was taken, the rats were dissected, and lungs were taken. The content of TGF-β1 in serum and the content of HYP in lung tissues were detected.

Streptococcus pneumoniae = experiment: Mouse pneumonia model, bacterial pneumonia; format: in vivo; conditions: BALB/C mouse pneumonia model, nasal drip; average ± standard deviation
Source text: (§1) A mouse pneumonia model was successfully established by using a nasal drip method. BALB/C mice with a body weight of 18-24 g were selected, and then anesthetized with ether on day 0, day 1 and day 2, respectively, prepared Streptococcus pneumoniae bacteria solution, adenovirus concentrated solution, Mycoplasma pneumoniae, Chlamydia pneumoniae, protozoa and pneumonia fungi were slowly dropped into the nasal cavity of the mice, so that the bacteria solutions entered the trachea and bronchi, and the bacteria solutions were prevented from flowing into the esophagus during the operation to avoid inactivation of the bacteria solutions, so that the mouse pneumonia model was established. After the model was successfully established, the recombinant fused polypeptides according to the present invention were administered.

adenovirus = experiment: Mouse pneumonia model, viral pneumonia; format: in vivo; conditions: BALB/C mouse pneumonia model, nasal drip; average ± standard deviation
Source text: as §1

pulmonary infections = experiment: Mouse pneumonia model, pneumonia caused by pulmonary infections; format: in vivo, BALB/C mice; conditions: BALB/C mouse pneumonia model, nasal drip, average ± standard deviation
Source text: as §1

Mycoplasma pneumoniae = experiment: Mouse pneumonia model, mycoplasma pneumonia; format: in vivo; conditions: BALB/C mouse pneumonia model, nasal drip; average ± standard deviation
Source text: as §1

pneumonia fungi = experiment: Mouse pneumonia model, fungal pneumonia; format: in vivo; conditions: BALB/C mouse pneumonia model, nasal drip; average ± standard deviation
Source text: as §1

Chlamydia pneumoniae = experiment: Mouse pneumonia model, chlamydia pneumonia; format: in vivo; conditions: BALB/C mouse pneumonia model, nasal drip; average ± standard deviation
Source text: as §1

protozoa = experiment: Mouse pneumonia model, protozoal pneumonia; format: in vivo; conditions: BALB/C mouse pneumonia model, nasal drip; average ± standard deviation
Source text: as §1

[3] = test system: SD rats with renal fibrosis; experiment: Renal fibrosis animal model (ureter ligation); format: in vivo; conditions: 6 mg/kg s.c. once every five days, after 15 days
Description: A renal fibrosis animal model was established. SD rats were anesthetized with 4% chloral hydrate, injected with 1 mL/100 g intraperitoneally, fixed to an operation board, and sterilized in an operation area for further use. […] Muscular layers and abdominal walls were sewed layer by layer, the suture was disinfected with alcohol. After SD rats woke up, the rats were put into a cage for feeding. In the blank group, ureter was not ligated, and other steps were the same.
Then, the animals fell into a blank group, a model group, and recombinant fused polypeptide administration groups, and the administration was started on the second day after the operation, and was performed for 15 days. After administration for 15 days, blood was taken and supernatant was taken to detect the content of TGF-β1 in serum.

[4] = test system: mice with myocardial fibrosis; experiment: Isoprenaline-induced myocardial fibrosis animal model; format: in vivo; conditions: BALB/c mice, isoprenaline 5 mg/kg s.c. daily for 7 days, 12 mg/kg s.c. (Table 5), after the 8th day, FIG. 5
Description: In the model group, the experimental mice were injected with isoprenaline (ISO) (5 mg/kg) subcutaneously on the back of the mice every day for 7 consecutive days, and the mice were injected with normal saline subcutaneously (200 μL/mouse) every day. In the blank group, normal saline was injected subcutaneously (200 μL/mouse) every day. […] After the 8th day, blood was taken and was centrifuged, the supernatant was taken, and the content of TGF-β1 in serum was detected.

[5] = test system: mice with bleomycin-induced skin fibrosis; experiment: Bleomycin-induced skin fibrosis model; format: in vivo, C57/BL black mice; conditions: C57/BL mice, bleomycin 10 μg/mL s.c. daily for 28 days, 10 mg/kg s.c. once every five days, 6 times, FIG. 6
Description: Bleomycin (10 μg/mL) was injected subcutaneously every day for 28 days to form skin fibrosis. During the modeling period, the administration groups were given drugs for treatment. After modeling, the mice were killed on the next day, and the skin tissue of the mouse back was taken to detect the content of HYP in the skin tissue. [table]

[6] = listed as recombinant fused polypeptide I

Molecule	Survival rate (%) [2] [%]	Inhibitory effect, Bacterial pneumonia (Streptococcus pneumoniae)	Inhibitory effect, Viral pneumonia (adenovirus)	Inhibitory effect, Pneumonia caused by pulmonary infections (pulmonary infections)	Inhibitory effect, Mycoplasma pneumonia (Mycoplasma pneumoniae)	Inhibitory effect, Fungal pneumonia (pneumonia fungi)	Inhibitory effect, Chlamydia pneumonia (Chlamydia pneumoniae)	Inhibitory effect, Protozoal pneumonia (protozoa)	further results
COC(=O)c1ccc2c(c1)NC(=O)/C2=C(\Nc1ccc(N(C)C(=O)CN2CCN(C)CC2)cc1)c1ccccc1 [Nintedanib, nintedanib, reference compound]	85.7	–	–	–	–	–	–	–	content of HYP in liver tissue, difference from the model group ([1]; FIG. 3): highly significantly different from the model group (***P<0.001); content of TGF-β1 in serum, difference from the model group ([2]; bleomycin pulmonary fibrosis, after 15 days, FIG. 2): highly significantly different from the model group (**P<0.01)
Penicillin [reference compound]	–	39.21 ± 5.35	50.07 ± 5.12	45.78 ± 3.65	43.21 ± 4.56	38.89 ± 2.24	39.13 ± 5.23	45.62 ± 5.43	–
PRCWRGEGGGGIVRRADRAAVPGGGGRGDGGGGSGGGGSGGGGSSDKPGGGGTSLDASIIWAMMQNGGGGLSKL (protein, Recombinant fused polypeptide X-linker1-Y expressed in 293 cells) PRCWRGEGGGGIVRRADRAAVPGGGGRGDGGGGSGGGGSGGGGSSDKPGGGGTSLDASIIWAMMQNGGGGLSKL	85.7	38.43 ± 8.25	54.68 ± 5.23	52.47 ± 4.28	38.47 ± 4.35	49.68 ± 5.74	39.26 ± 4.66	54.26 ± 5.32	content of TGF-β1 in serum, difference from the model group ([3]; FIG. 4, listed as recombinant fused polypeptide 1, 6 mg/kg): highly significantly different from the model group (***P<0.001); content of TGF-β1 in serum, difference from the model group ([3]; FIG. 4, listed as recombinant fused polypeptide I, 6 mg/kg): can lower the TGF-β1 content; content of HYP in liver tissue, difference from the model group ([1]; FIG. 3, listed as Recombinant fused polypeptide 1): highly significantly different from the model group (***P<0.001); content of HYP in liver tissue, difference from the model group ([1]; FIG. 3, listed as recombinant fused polypeptide I): can lower the HYP content; Inhibitory effect, Pneumonia caused by pulmonary infections (pulmonary infections; [6]): inhibitory effect; Survival rate (%) ([2]; listed as fused polypeptide 1): equivalent to that of the positive drug group; hydroxyproline (HYP) content in lung tissue ([2]; bleomycin pulmonary fibrosis, 10 mg/kg s.c. once every five days, after 15 days, FIG. 1): can lower the hydroxyproline content; content of TGF-β1 in serum, difference from the model group ([2]; bleomycin pulmonary fibrosis, after 15 days, FIG. 2, listed as fused polypeptide 1): highly significantly different from the model group (**P<0.01); content of TGF-β1 in serum, difference from the model group ([2]; bleomycin pulmonary fibrosis, after 15 days, FIG. 2, listed as recombinant fused polypeptide I): can lower the TGF-β1 content; content of TGF-β1 in serum, difference from the model group ([4]; listed as recombinant fused polypeptide 1): significantly different from the model group (**P<0.01); content of TGF-β1 in serum, difference from the model group [4, 6]: can lower the TGF-β1 content; content of HYP in skin tissue, difference from the model group ([5]; listed as recombinant fused polypeptide 1, 10 mg/kg): highly significantly different from the model group (**P<0.01); content of HYP in skin tissue, difference from the model group ([5]; listed as recombinant fused polypeptide I, 10 mg/kg): can lower the hydroxyproline content
